The values that follow come from publication PMC6853996, “Assaying Homodimers of NF-κB in Live Single Cells” (Frontiers in Immunology, 2019).

Series [1] deals with the molecule itself. The series can be described thus: Number and Brightness (N&B) live-cell confocal fluorescence fluctuation microscopy; nuclei of live NIH3T3 fibroblasts transiently or stably expressing the mEGFP fusion, 37°C; brightness ε relative to the mEGFP-mutGR monomer control; stimuli 10 ng/mL TNFα, 100 ng/mL LPS, 100 nM Dex, dihydrotestosterone or progesterone; pre-treatments WFA (0.5 or 1 μM, 1 h) or TSA (2 h) before LPS; untagged endogenous protein present.

The target in series [2] is T1, mEGFP-RelA (fluorescent fusion protein expressed from the pSF-EF1α-Ub-Neo plasmid), Q04207.
T1 chain: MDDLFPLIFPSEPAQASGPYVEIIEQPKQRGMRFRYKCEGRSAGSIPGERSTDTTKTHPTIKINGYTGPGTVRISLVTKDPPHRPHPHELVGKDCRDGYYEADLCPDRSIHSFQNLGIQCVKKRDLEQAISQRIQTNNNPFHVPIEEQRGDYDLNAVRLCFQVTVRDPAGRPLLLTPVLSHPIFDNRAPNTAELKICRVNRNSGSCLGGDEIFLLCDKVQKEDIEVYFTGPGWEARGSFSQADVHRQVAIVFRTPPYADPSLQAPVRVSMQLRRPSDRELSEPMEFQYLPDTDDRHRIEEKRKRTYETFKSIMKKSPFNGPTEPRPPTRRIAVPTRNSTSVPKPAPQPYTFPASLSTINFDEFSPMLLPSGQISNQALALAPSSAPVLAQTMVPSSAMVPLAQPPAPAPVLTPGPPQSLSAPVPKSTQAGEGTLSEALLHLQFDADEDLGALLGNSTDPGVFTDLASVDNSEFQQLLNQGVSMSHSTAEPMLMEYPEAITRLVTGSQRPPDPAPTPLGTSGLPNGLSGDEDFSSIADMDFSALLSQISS
Described as above. To be noted: remark: other sources report otherwise.

For series [3], the target named is T1, mEGFP-RelA (fluorescent fusion protein …). The experiment in a line: Number and Brightness (N&B) live-cell confocal fluorescence fluctuation microscopy; nuclei of live primary mouse adult fibroblasts (WT or p50/c-Rel double-KO) transiently expressing mEGFP-RelA, 100 ng/mL LPS; brightness ε relative to the monomer control; untagged endogenous RelA present. To be noted: remark: other sources report otherwise.

Series [4] addresses T2, mEGFP-RelA from the knock-in (KI) mouse (mEGFP inserted at the endogenous RelA locus) (mouse), Q04207.
T2 chain: T1 chain
The experiment in a line: Number and Brightness (N&B) live-cell confocal fluorescence fluctuation microscopy; nuclei of live primary MAFs from the mEGFP-RelA knock-in mouse, treated with TNFα or LPS; all RelA tagged. To be noted: remark: other sources report otherwise.

The target of series [5] is T3, mEGFP-GR (mEGFP-tagged wild-type glucocorticoid receptor), P06537.
T3 chain: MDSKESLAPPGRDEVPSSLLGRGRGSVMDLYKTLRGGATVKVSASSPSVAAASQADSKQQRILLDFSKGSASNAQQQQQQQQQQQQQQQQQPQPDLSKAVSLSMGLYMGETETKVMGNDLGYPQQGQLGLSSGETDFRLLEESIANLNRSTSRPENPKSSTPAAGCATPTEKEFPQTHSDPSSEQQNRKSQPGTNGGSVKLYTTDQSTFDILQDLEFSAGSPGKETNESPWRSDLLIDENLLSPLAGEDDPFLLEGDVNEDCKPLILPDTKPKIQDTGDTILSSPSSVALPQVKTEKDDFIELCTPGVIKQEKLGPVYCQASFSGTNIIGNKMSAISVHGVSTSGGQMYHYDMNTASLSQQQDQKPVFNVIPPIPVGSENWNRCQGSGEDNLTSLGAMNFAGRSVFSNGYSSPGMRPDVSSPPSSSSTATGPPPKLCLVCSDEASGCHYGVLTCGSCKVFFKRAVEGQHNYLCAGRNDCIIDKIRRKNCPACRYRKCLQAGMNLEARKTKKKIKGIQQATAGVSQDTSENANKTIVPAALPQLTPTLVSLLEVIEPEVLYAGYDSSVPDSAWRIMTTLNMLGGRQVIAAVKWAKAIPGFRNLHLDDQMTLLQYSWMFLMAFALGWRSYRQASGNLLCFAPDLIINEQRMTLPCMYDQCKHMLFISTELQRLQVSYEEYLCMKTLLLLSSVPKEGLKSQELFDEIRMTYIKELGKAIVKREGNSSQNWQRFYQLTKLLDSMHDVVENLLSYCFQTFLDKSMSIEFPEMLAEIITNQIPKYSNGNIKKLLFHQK
The series can be described thus: Number and Brightness (N&B) live-cell confocal fluorescence fluctuation microscopy; nuclei of live NIH3T3 fibroblasts transiently or stably expressing the mEGFP fusion, 37°C; brightness ε relative to the mEGFP-mutGR monomer control; stimuli 10 ng/mL TNFα, 100 ng/mL LPS, 100 nM Dex, dihydrotestosterone or progesterone; pre-treatments WFA (0.5 or 1 μM, 1 h) or TSA (2 h) before LPS; untagged endogenous protein present. To be noted: remark: other sources report otherwise.

Values joined by “and” are separate entries in the source; they are usually repeats but may differ in a detail not shown here. Equal values may be shown once.

B1: mEGFP-PR (mEGFP-tagged progesterone receptor) (natural protein, UniProt P06401 1-933, looked up)
chain: MTELKAKGPRAPHVAGGPPSPEVGSPLLCRPAAGPFPGSQTSDTLPEVSAIPISLDGLLFPRPCQGQDPSDEKTQDQQSLSDVEGAYSRAEATRGAGGSSSSPPEKDSGLLDSVLDTLLAPSGPGQSQPSPPACEVTSSWCLFGPELPEDPPAAPATQRVLSPLMSRSGCKVGDSSGTAAAHKVLPRGLSPARQLLLPASESPHWSGAPVKPSPQAAAVEVEEEDGSESEESAGPLLKGKPRALGGAAAGGGAAAVPPGAAAGGVALVPKEDSRFSAPRVALVEQDAPMAPGRSPLATTVMDFIHVPILPLNHALLAARTRQLLEDESYDGGAGAASAFAPPRSSPCASSTPVAVGDFPDCAYPPDAEPKDDAYPLYSDFQPPALKIKEEEEGAEASARSPRSYLVAGANPAAFPDFPLGPPPPLPPRATPSRPGEAAVTAAPASASVSSASSSGSTLECILYKAEGAPPQQGPFAPPPCKAPGASGCLLPRDGLPSTSASAAAAGAAPALYPALGLNGLPQLGYQAAVLKEGLPQVYPPYLNYLRPDSEASQSPQYSFESLPQKICLICGDEASGCHYGVLTCGSCKVFFKRAMEGQHNYLCAGRNDCIVDKIRRKNCPACRLRKCCQAGMVLGGRKFKKFNKVRVVRALDAVALPQPVGVPNESQALSQRFTFSPGQDIQLIPPLINLLMSIEPDVIYAGHDNTKPDTSSSLLTSLNQLGERQLLSVVKWSKSLPGFRNLHIDDQITLIQYSWMSLMVFGLGWRSYKHVSGQMLYFAPDLILNEQRMKESSFYSLCLTMWQIPQEFVKLQVSQEEFLCMKVLLLLNTIPLEGLRSQTQFEEMRSSYIRELIKAIGLRQKGVVSSSQRFYQLTKLLDNLHDLVKQLHLYCLNTFIQSRALSVEFPEMMSEVIAAQLPKILAGMVKPLLFHKK
notes: progesterone receptor; Assayed in cells treated with progesterone; source: fibroblasts (immortalized), transiently transfected, in live cells
Regarding B1, the “nuclear brightness (ε) relative to monomer control; transiently transfected fibroblasts, progesterone” value in series [1] came out at 2.07.

B2: mEGFP-RelA (fluorescent fusion protein expressed from the pSF-EF1α-Ub-Neo plasmid), Q04207 1-549 (natural protein)
chain: T1 chain
As to B2, in series [2], the median nuclear brightness (ε) relative to monomer control; stably transfected 3T3, LPS was found to be 1.75; the median nuclear brightness (ε) relative to monomer control; stably transfected 3T3, TNFα is 1.61; the median nuclear brightness (ε) relative to monomer control; transiently transfected 3T3, TNFα worked out at 1.52; the nuclear brightness (ε); stably transfected 3T3, 0.5 μM WFA before LPS amounted to 1.57. In addition, in series [2], the nuclear brightness (ε); stably transfected 3T3, 1 μM WFA before LPS was 1.61; the nuclear brightness (ε); stably transfected 3T3, TSA before LPS (concentration not given) is 1.42 and 1.58; the percent dimers (estimated from ε); stably transfected 3T3, LPS was 60%; the percent dimers (estimated from ε); stably transfected 3T3, TNFα was 43%. In series [2], the percent of RelA dimer species that are RelA homodimers (estimated from ε); transiently transfected 3T3, TNFα is 35%. In series [3], the nuclear brightness (ε) relative to monomer control; WT primary MAFs, LPS was 1.29; the nuclear brightness (ε) relative to monomer control; p50/c-Rel double-KO primary MAFs, LPS came out at 1.31; the percent of RelA-containing dimers in the nucleus that are homodimers (estimated from ε); WT primary MAFs, LPS was 20%.

B3: mEGFP-RelA from the knock-in (KI) mouse (mEGFP inserted at the endogenous RelA locus), Q04207 1-549 (natural protein)
chain: T1 chain
B3 came in with a percent of RelA dimer species that are RelA homodimers; knock-in MAFs, TNFα or LPS in series [4] of under 35%.

B4: mEGFP-GR (mEGFP-tagged wild-type glucocorticoid receptor), P06537 1-792 (natural protein)
chain: T3 chain
With B4, the nuclear brightness (ε) relative to monomer control; transiently transfected 3T3, Dex in series [5] was found to be 1.52.
